Data set [1] concerns the target T1, Gcl (Pseudomonas aeruginosa, UniProt Q9I3L0).
T1 construct: full-length ORF in pET-19m, N-terminal His6 tag cut with TEV protease, expressed in E. coli Rosetta, Ni-NTA
T1 sequence (Q9I3L0 1-591): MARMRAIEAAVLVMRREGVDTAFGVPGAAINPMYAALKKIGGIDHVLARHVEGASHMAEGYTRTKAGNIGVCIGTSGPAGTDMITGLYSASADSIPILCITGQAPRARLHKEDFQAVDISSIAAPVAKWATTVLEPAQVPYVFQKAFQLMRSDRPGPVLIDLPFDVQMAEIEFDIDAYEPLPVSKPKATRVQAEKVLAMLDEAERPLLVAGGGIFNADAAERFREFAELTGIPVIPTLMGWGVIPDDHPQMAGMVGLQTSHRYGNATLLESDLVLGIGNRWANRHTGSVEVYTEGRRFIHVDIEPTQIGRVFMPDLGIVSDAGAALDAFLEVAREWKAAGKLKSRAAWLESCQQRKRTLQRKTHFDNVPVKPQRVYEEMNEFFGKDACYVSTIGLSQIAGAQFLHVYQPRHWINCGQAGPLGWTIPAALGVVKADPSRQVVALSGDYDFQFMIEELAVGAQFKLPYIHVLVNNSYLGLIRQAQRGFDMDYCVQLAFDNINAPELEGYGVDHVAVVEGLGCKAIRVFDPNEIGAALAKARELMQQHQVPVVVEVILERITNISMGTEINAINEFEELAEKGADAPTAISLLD
Kind of data set: GlxR-coupled NADH oxidation with added FAD; yellow protein ([…] nm). In kind it is biochemical. The conditions noted are these: 100 µM FAD roughly doubled activity; 37 °C.

The target in data set [2] is Hyi (PA1501), putative hydroxypyruvate isomerase from Pseudomonas aeruginosa (P. aeruginosa). The experiment in a line: AUC; analytical ultracentrifugation, sedimentation velocity (AUC-SV), of each purified protein alone.
Another data set concerns the target T2, Hyi (Pseudomonas aeruginosa, UniProt Q9I3L1).
T2 construct: gene PA1501; full-length ORF in pET-19m, N-terminal His6 tag (cleavage clearly told only for Gcl), expressed in E. coli Rosetta, Ni-NTA; dimer in solution
T2 sequence (Q9I3L1 1-260): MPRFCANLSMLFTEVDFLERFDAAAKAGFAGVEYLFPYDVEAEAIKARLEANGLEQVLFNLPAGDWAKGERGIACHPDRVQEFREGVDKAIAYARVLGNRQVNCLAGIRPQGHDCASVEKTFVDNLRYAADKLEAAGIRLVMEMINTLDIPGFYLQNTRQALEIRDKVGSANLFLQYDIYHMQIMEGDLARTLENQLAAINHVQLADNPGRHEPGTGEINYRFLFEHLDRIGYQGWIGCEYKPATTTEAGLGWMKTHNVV
The experiment in a line: 1H-NMR, disappearance of hydroxypyruvate peaks. The format is biochemical. The settings on record: 50 mM sodium phosphate in D2O, 1 mM MgCl2, pD 7.0; 37 °C; likely isomerization with H/D exchange, product peak not seen.

Data set [3] deals with T1, Gcl. Kind of data set: 1H-NMR, decrease of hydrated glyoxylate peak. The format is biochemical. The conditions noted are these: 50 mM sodium phosphate in D2O, 1 mM MgCl2, pD 7.0; 37 °C; 22 h; no Hyi.
Substrate in data set [4]: O=C(O)C(=O)CO
The experiment in a line: purified protein. The format is biochemical, Pseudomonas aeruginosa. The conditions noted are these: 0.2 mM NADH, 20 mM MOPS, pH 7.5, 37 °C, h = 1.6 ± 0.2, some TSA may be present by tautomerization, no Hyi.

Substrate in data set [5]: O=CC(O)C(=O)O
The experiment in a line: purified protein. The format is biochemical, Pseudomonas aeruginosa. The conditions noted are these: TSA made in situ by Gcl from 0-10 mM glyoxylate (concentration varied was glyoxylate, so apparent), 0.2 mM NADH, 20 mM MOPS, 37 °C, no Hyi.

Data set [6] deals with the molecule itself. Kind of data set: AUC; analytical ultracentrifugation, sedimentation velocity (AUC-SV), of each purified protein alone.

Regarding `Cc1cc2nc3c(=O)[nH]c(=O)nc-3n(C[C@H](O)[C@H](O)[C@H](O)COP(=O)(O)OP(=O)(O)OC[C@H]3O[C@@H](n4cnc5c(N)ncnc54)[C@H](O)[C@@H]3O)c2cc1C` [flavin adenine dinucleotide], the “GlxR-coupled NADH oxidation with added FAD; yellow protein (445 nm)” value at Gcl [1] was “FAD supplementation roughly doubled the enzyme activity”.
One may read the stoichiometry N as a count of units in the complex or per binding partner. As for “Hyi (PA1501), putative hydroxypyruvate isomerase from Pseudomonas aeruginosa (enzyme)”, in data set [2], the stoichiometry N was determined as 2.
For `O=C(O)C(=O)CO` [hydroxypyruvate], the “1H-NMR, disappearance of hydroxypyruvate peaks” value on Hyi is reported as “In the presence of Hyi, both hydroxypyruvate peaks had lessened in intensity”.
With `O=CC(=O)O` [glyoxylate], the “1H-NMR, decrease of hydrated glyoxylate peak” value at Gcl [3] is “In the presence of Gcl, this hydrated glyoxylate peak slowly diminished in intensity”.

B1: GlxR (PA1500), tartronate semialdehyde (TSA) reductase from Pseudomonas aeruginosa (enzyme, P. aeruginosa, UniProt Q9I3L2 1-296, looked up)
chain: MAKIGFIGTGIMGKPMAQNLQKAGHSLFLSTHHDAAPADLLEAGAIALANPKEVAQEAEFIIVMVPDTPQVEDVLFRKDGIAEGAGPNKVVIDMSSISPTATKGFAEKIKATGAQYLDAPVSGGEVGAKAATLSIMVGGCPNTFERALPLFQAMGKNITRVGGNGDGQTAKVANQIIVALNIQAVAEALLFAARNGADPAKVREALMGGFASSRILEVHGERMVKGTFDPGFRISLHQKDLNLALAGARELNLNLPNTANAQQVFSTCAAIGGSNWDHSALIKGLEHMANFSIRDE
notes: GlxR, tartronate semialdehyde reductase, ORF PA1500 of P. aeruginosa strain PAO1; the ORF was tagged and over-expressed; The methods state TEV cleavage of the His6 tag 'For Gcl' but then speak of 'each of the over-expressed proteins'; whether the tag of GlxR was removed is not clear; For crystallisation the elution and dialysis buffers differed (PBS based); also called apo-GlxR; GlxRα; source: E. …
What is called kcat is the number of substrate molecules converted per active site and unit of time at saturation. One may read the Km as the concentration of substrate that gives half-maximal velocity. B1: in the data set “purified protein [4]”, the K0.5 was found to be 16.7 mM and the kcat worked out at 33.5 s⁻¹. For the same molecule, in “purified protein [5]”, the Km is 800 µM and the kcat was 34.7 s⁻¹. In addition, in data set [6], the “stoichiometry N” value was found to be 4.
